Test results as given in paper PMC5570134.

Target: FUS RRM (UniProt P35637 267-373)
Test: EMSA

Chain of FUS RRM (P35637 267-373): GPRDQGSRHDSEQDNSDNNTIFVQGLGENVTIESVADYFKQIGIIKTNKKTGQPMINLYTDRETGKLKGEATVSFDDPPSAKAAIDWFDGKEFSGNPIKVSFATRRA

## AAAAAAAAAAAAAAAAAAAAAAAAAAAAAAAAAAAAAAAA (ssRNA) [Poly-A]
  Kd: 45 ± 2 µM

## GCUGCGGUGUGGAAGGAGUGGCUGGGUUGCGCAGG (structured_RNA) [Sc1]
  Kd: 48 ± 3 µM
